System: K4 kissing-loop RNA reporter
Assay: apparent KD of K4 kissing-loop reporter; higher = weaker reporter binding
Settings: Eterna round: R107
Method: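 RNA-MaP round R107: designed RNA switches with theophylline, tryptophan, arginine or FMN aptamers are transcribed on-chip within common flanks. They are titrated with a labelled K4 kissing-loop RNA reporter in RNA-MaP buffer (100 mM Tris pH 7.5, 80 mM KCl, 4 mM MgCl2), without ligand or with the indicated ligand. Median apparent KD per design.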

[1] = input ligand: theophylline 20 uM
[2] = input ligand: tryptophan 2.4 mM
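Further: bound reporter read as fluorescence of individual clusters on recovered sequencing chips by microscopy, with normalized cluster intensities fitted with a binding model.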

| Sequence | apparent KD of K4 kissing-loop reporter (input ligand: FMN 200 uM) [nM] | apparent KD of K4 kissing-loop reporter (input ligand: arginine 13.2 mM) [nM] | apparent KD of K4 kissing-loop reporter (input ligand: none) [nM] | apparent KD of K4 kissing-loop reporter [1] [nM] | apparent KD of K4 kissing-loop reporter [2] [nM] |
| --- | --- | --- | --- | --- | --- |
| GGUAGCAUGGCGGCCGCCACUUCAAGUGGAGUGAUGUUCCACGGCAUCGCGAAAGCGAUGCCUGGAAGGACCGGGCCAUGCUACC | 738 | 739 | 720 | 761 | 284 |
| GGUAGCAUGGCGGCCGCCACUUCAUAUGGAGUGAUGUUCCAGCAUCUUAUAAGACUGAGGUGAGGAAGGACCGGGCCAUGCUACC | 635 | 561 | 577 | 615 | 189 |
| GGUAUGGAAGCAACAUCACAAGCCGUACCACGAGGACCGGUACGGCCGCCACUCGAUAACUUGCAGUGAUGUUGCAAGUAAGAAU [(T)''-(K)'-(T)'-(T1)-(T2)-(K1)-(K2)_Design6] | 147 | 80.5 | 133 | 117 | 68.6 |
| GGUGACAGCCAGGAGUGAUGUAUAGAAUAGCGAGGACCGGUACGGCCGCCACUCGUGAAGAGAAAGGAGUGAUGUUCCGUAAUGG [Kazoo C2] | 224 | 178 | 193 | 308 | 57 |
| GGUGCCGGGCAAGGAUAUUAGUCGAGUGAUGUUCGGCGGUCCAAGUCGUUGCGGCGUUAAACCCUUUGAGAAGGUGCCCGGUGCC [#2 Exclusion - FMN B Attempt #1 (HarryS)] | 198 | 144 | 193 | 195 | 163 |
| GGUGUUGUUUGUGCUGUUUUCCUCGUUCCUCGAGGACCGGUACGGCCGCCACUCGAGUGAUGUUUGGGUAGCGAUCCUUGUUAGU [Bdazzled - #7 Exc. Tryptophan A] | 336 | 226 | 341 | 264 | 441 |
| GGUGUUGUUUGUGCUGUUUUCUUUGUUUCUCGAGGACCGGUACGGCCGCCACUCGAGUGAUGUUUGGGUAGCGAUGUUUGUUAGU [Bdazzled - #2 - Exc. Tryptophan A] | 463 | 280 | 355 | 383 | 411 |
| GGUUCUGGUUUGGAGUGAUGUUCUAAGUGGCAGGAUAUGGAGAGAUCCAGAAGGGCCGUUUGUAUCUUUUUUGUGUGGUUUUUUU [Last Minute #2] | 132 | 195 | 231 | 206 | 160 |
| GGUUUAUAGGAGGAUACCAGUACGAAUAAAGUACAUUAAUAGUAGAGUGAUGUUCUAAAGUACCCUUGGCAGCUUAGAUUAAGUU [ExTheophylB.H] | 102 | 180 | 116 | 166 | 77.9 |
| GUACCAGUGAUGUUGGUAGGCGAGCGGGAUACCAGCCAAGACUCAGGCCCUUGGCAGCCCACAUAUCCCACGUAGGUAGUAGCUC [Same State - Theophylline A (Freestyle 17)] | 96 | 103 | 105 | 110 | 92.9 |
| GUACGCUCCCGAGUGAUGUUCGGUAAUCGCUAGGAUAUCGCUUUUGCGAGAAGGAGCGGAAUGAGGAAACUCGUUCUGAGUGUAC [FMN A 26] | 300 | 254 | 350 | 386 | 338 |
| GUACGCUCUCGAGUGAUGUUCGAUAAUCGCGAGGAUAUCGCUUUUGCGAGAAGGCGCGGAAUGAGGAAACUCGUUCUGAGUGUAC [FMN A 24] | 603 | 390 | 1060 | 673 | 841 |
| GUACGCUCUCGAGUGAUGUUCGGUAAUCGCUAGGAUAUCGCUUUUGCGAGAAGGAGCGGAAUGAGGAAACUCGUUCUGAGUGUAC [FMN A 22] | 452 | 295 | 447 | 325 | 476 |
| GUAGACAGACUGCGGGCCUAGUCUACAGACUAGGAUAUCAGGAAACUGAGAAGGAGUCUAGUUGCAGUGAUGUUGCAAGAAUAAU [KL-SSFMN-A26] | 99.1 | 115 | 93.6 | 114 | 78.4 |
| GUAUCGCUAGGAGGAUAUUCCAUUUUACAUAGAAAUGGCUAUGCGGAGUGAUGUUCCGAUUUACGGGAAGAAGGCCUAGUGAUAC [FMN B 21] | 137 | 119 | 131 | 115 | 121 |
| GUAUCGCUAGGAGGAUAUUUCAAAUAACCAAUAAAUGGUUAUACGGAGUGAUGUUCCGAUUUACGGAAAGAAGGCCUAGUGAUAC [FMN B 5] | 137 | 276 | 302 | 319 | 290 |
| GUGCGGUGGAGGUUACCGCUAUUCUGAGAAGGAGCGCAGAUGACUGCAGGUAGGUCGCUUAGAGCUUGCAGUGAUGUUGCAAGUU [Berienza] | 220 | 174 | 199 | 166 | 200 |
| GUGGAAUUAUGAAAGUGGUUUUAUUAGGAAGGAGCGGCCGAAAGGCCAGGUAGGUCGCCUAUUGACAGUGAUGUUGUUAUAUGGU [#14] | 158 | 199 | 151 | 204 | 94.3 |
| GUGGCGACGCAAGGAUAUGGGUGCUAGUGAUGUUAGCCUUUGCUCCAUGUCACGUGGUCUGCACACCCAGAAGGUGCGGGAAGAU [theeternabot_exclusion_KL_FMN_B_9] | 482 | 293 | 327 | 307 | 354 |
| GUUACGCAUGGAAGGAGCGCACUCCGAUUGGUCGACACAGUGAUGUUGUGGUUCGUUCGAAUGCAGGUAGGUCGCCAUGUGUAAC [Ex Arginine B K4 18] | 165 | 143 | 175 | 145 | 150 |
| GUUACGCAUGGAAGGAGCGCAGGCUCAACAAAUAGCUCAGUGAUGUUGAGCAUAUUAAAUCUGCAGGUAGGUCGCCAUGUGUAAC [Ex Arginine B K4 24] | 498 | 500 | 504 | 559 | 581 |
| GUUAUGGACCUGGAUACCAGCUGGUACUAAGUGGGAGAAUGAAAGUGAUGUUUUCGUGCUAGCCCUUGGCAGCCAGCAACCCGCA [XTheo-B7] | 104 | 83.6 | 89.4 | 79.4 | 80.1 |

From the supplement of paper PMC9170038
